Assays:
[1] = target: BRD4 BD1 BD1 (Homo sapiens, UniProt O60885, ZZ1-SO2H)
[2] = target: biotinylated YPEL5–WDR26^ΔCTLH complex (AviTag on WDR26^ΔCTLH) (UniProt Q9H7D7 1-661; P62699 1-121, biotin on the C-terminal AviTag (BirA)); assay: BLI

B1: YPEL5 (protein)
chain: MGRIFLDHIGGTRLFSCANCDTILTNRSELISTRFTGATGRAFLFNKVVNLQYSEVQDRVMLTGRHMVRDVSCKNCNSKLGWIYEFATEDSQRYKEGRVILERALVRESEGFEEHVPSDNS
Kd [1]: ~12 nM

B2: BD1 domain of BRD2 (domain or fragment)
chain: not shown
Kd [2]: 16.4 nM

B3: BD1 domain of BRD3 (domain or fragment)
chain: not shown
Kd [2]: 23.2 nM

Reference: publication PMC13355314 (2026)
